The source of these data is patent CN113621065A (WUHAN HSA BIND BIOTECHNOLOGY CO LTD, dated 2021).

Assay [1] deals with T1, 阴性对照蛋白BSA (UniProt P02769 25-607).
T1 construct: also called 对照BSA
The experiment in a line: single-phage ELISA, 100 ng/well coated protein. For orientation: ELISA stands for enzyme-linked immunosorbent assay.

Assay [2] has as its target T2, 人4-1BB胞外区蛋白(hu4-1BB ECD) (human, UniProt Q07011 24-186).
T2 construct: extracellular domain; also called 人4-1BB蛋白; 抗原4-1BB
Briefly: single-phage ELISA, 100 ng/well coated 4-1BB.

T1 sequence (P02769 25-607 limits assumed): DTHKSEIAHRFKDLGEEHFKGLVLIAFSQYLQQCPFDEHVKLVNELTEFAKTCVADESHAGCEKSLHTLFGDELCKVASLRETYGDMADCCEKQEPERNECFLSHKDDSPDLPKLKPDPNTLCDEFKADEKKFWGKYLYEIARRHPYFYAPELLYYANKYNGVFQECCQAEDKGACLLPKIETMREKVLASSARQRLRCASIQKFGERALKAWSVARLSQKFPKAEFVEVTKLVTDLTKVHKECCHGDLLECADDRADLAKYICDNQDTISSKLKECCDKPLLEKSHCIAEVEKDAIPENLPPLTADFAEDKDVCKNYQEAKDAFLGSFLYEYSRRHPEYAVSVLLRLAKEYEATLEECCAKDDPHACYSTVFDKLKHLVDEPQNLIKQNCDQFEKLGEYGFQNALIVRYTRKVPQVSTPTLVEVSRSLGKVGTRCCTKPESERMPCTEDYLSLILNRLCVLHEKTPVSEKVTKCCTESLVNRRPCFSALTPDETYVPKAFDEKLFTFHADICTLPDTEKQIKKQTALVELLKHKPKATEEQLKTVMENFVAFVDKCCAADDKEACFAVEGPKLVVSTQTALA

B1: 抗体(scFv)8F5 (scFv)
scFv: QVQLVQSGAEVKKPGASVKVSCKPSGYTFTSHYIHWVRQAPGQGLEWMGWINPNSGGTNYAQKFQGRVTMTRDTSISTAYMELSRLRSDDTAVYYCARDGGGMDVWGKGTMVTVSSGGGGSGGGGSGGGGSQSALTQPASVSGSPGQSITISCTGTSSDVGGYDFVSWYQHHPGKAPKLMIYGVANRPSGVSNRFSGSKSGNTASLTISGLQAEDDADYYCSSYSSTSTRYVFGTGTKVTVLG
With B1, the binding result in assay [1] was “no binding”; in assay [2], “binds”.
